Experiment [1] concerns the target T1, human GITR expressed on human primary immune cells (T cells, NK cells, NKT cells of PBMC) (human, UniProt Q9Y5U5 26-241).
T1 construct: Native GITR of donor PBMC; also called hGITR in human primary immune cells; GITR on the surface of immune cells
T1 sequence: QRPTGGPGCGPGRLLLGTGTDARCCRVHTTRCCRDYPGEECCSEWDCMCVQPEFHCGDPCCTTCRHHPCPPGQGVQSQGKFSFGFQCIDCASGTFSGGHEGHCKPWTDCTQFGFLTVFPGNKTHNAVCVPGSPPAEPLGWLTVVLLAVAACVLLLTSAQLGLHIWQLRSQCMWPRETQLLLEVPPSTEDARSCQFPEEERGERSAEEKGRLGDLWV
The experiment in a line: flow cytometry, AF488-labelled antibody on activated human PBMC.

Experiment [2] addresses recombinant human GITR (Cat No. 13643-H08H, Lot No. LC12JA2509, Sino Biological) (human) (UniProt Q9Y5U5). The experiment in a line: SPR Biacore 8K, multi-cycle kinetics, purified IgG captured on Protein A, GITR as analyte. (In general: In SPR one partner is held on a chip, and binding of the other changes the refractive index at the surface.)
Experiment [3] shares this target. The experiment in a line: SPR Biacore 8K, single-cycle kinetics, IgG in supernatant captured on Protein A, GITR as analyte.
The target of experiment [4] is T2, hGITR (including His tag; Cat. GIR-H5228, Acrobiosystems) (human, UniProt Q9Y5U5 26-162).
T2 construct: Bought protein; not shown: His tag
T2 sequence: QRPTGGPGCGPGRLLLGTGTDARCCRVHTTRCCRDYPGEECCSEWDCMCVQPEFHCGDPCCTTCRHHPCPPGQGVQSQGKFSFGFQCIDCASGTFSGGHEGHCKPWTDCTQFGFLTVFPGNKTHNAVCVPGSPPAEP
The experiment in a line: DSS cross-linking of the GITR/51B complex, nLC-orbitrap MS/MS.

These results are taken from patent EP4339209A1 (MediMabbio Inc., dated 2024).

Broadly, the Kd is a measure of binding affinity in units of concentration. One may read the koff as the rate constant with which the complex falls apart. What is called kon is the second-order rate constant of association.

B1: anti-GITR 51B VH0/VL0 chimeric antibody (human IgG1, kappa) (antibody, V domains shown)
VH: QVQLQQSGAELMKPGASVKLSCKTTGYRFTGYWIEWVKQRPGHGLEWIGEILPGSGATYYSENFKGKATFTADTSSNTAYMQVSSLTTGDSAIYYCARKGGYYAMDYWGQGTSVTVSS
VL: QIVLTQSPAIMSASLGERVTMTCTASSSVSSSYFHWYQQKPGSSPKLWIYSTSNLASGVPARFSGSGSGTSYSLTVSSLEAEDAATYYCHLYHRSPRTFGGGTTLDIKR
notes: Chimeric antibody; also called VH0/Vk0; 51B VH0/Vk0
Consider B1, for which, in experiment [1], the binding result is on record as “binds”. In addition, in experiment [2], the Kd was determined as 0.57 nM, the Relative KD (fold vs VH0/VL0) amounted to 1, the koff is 0.000314 s⁻¹ and the kon came to 552000 M⁻¹ s⁻¹. For the same molecule, in experiment [3], the Kd came to 0.566 nM, the Relative KD (fold vs VH0/VL0) came out at 1, the koff was 0.000334 s⁻¹ and the kon came out at 590000 M⁻¹ s⁻¹.

B2: 51B antibody (as used in the epitope mapping, Example 1.7) (antibody, V domains shown)
VH: QVQLQQSGAELMKPGASVKLSCKTTGYRFTGYWIEWVKQRPGHGLEWIGEILPGSGATYYSENFKGKATFTADTSSNTAYMQVSSLTTGDSAIYYCARKGGYYAMDYWGQGTSVTVSS
VL: QIVLTQSPAIMSASLGERVTMTCTASSSVSSSYFHWYQQKPGSSPKLWIYSTSNLASGVPARFSGSGSGTSYSLTVSSLEAEDAATYYCHLYHRSPRTFGGGTTLDIK
notes: also called anti-GITR monoclonal antibody (51B clone)
For the molecule B2, in experiment [4], the binding result is reported as “binds”.

B3: anti-GITR 51B VH3/VL4 humanized antibody (human IgG1, kappa) (antibody, V domains shown)
VH: QVQLVQSGAEVKKPGASVKVSCKTTGYRFTGYWIEWVRQPPGKGLEWIGEILPGSGATYYSENFKGKVTITADTSTDTAYMELSSLRSEDTAIYYCARKGGYYAMDYWGQGTLVTVSS
VL: EIVLTQSPATLSLSPGERATLSCTASSSVSSSYFHWYQQKPGKAPKLWIYSTSNLQSGVPDRFSGSGSGTDYTLTISSLQAEDVATYYCHLYHRSPRTFGGGTKVEIKR
notes: also called VH3/Vk4; 51B VH3/Vk4
With B3, the binding result in experiment [1] is on record as “binds”. Moreover, in experiment [2], the Kd amounted to 0.675 nM, the Relative KD (fold vs VH0/VL0) stood at 1.19, the koff was 0.00043 s⁻¹ and the kon is 636000 M⁻¹ s⁻¹. In addition, in experiment [3], the Kd is 0.758 nM, the Relative KD (fold vs VH0/VL0) came out at 1.3, the koff was found to be 0.000467 s⁻¹ and the kon stood at 616000 M⁻¹ s⁻¹.
